Where two headings read alike, the source gives them in different places.
How the values were obtained:
human Sirpα-V2-his [1] = biological target: human Sirpα-V2-his (human); assay: ELISA EC50 against Ref2
Experimental: (§1) Different antigens (recombinant proteins) such as the human Sirpα-V1-hFc, Sirpα-V1-his, Sirpα-V2-his, Sirpβ-his, Sirpγ-his, monkey Sirpα-his (cynoSirpα-his) or NOD-mSirpα-his described in Example 1 were diluted with a PBS buffer at pH7.4 to concentrations of 1 μg/mL, 2 μg/mL or 5 μg/mL, added into a 96-well ELISA plate (Corning, CLS3590-100EA) at a volume of 50 μL/well, and placed in an incubator at 37° C. for 2 hours. After the liquid was discarded, the wells were added with a blocking solution of 5% skimmed milk (skimmed milk powder available from Bright Dairy) diluted with PBS at 230 μL/well, and incubated in an incubator at 37° C. for 3 hours, or placed overnight at 4° C. (for 16-18 hours) for blocking. […] The plated was washed with PBST for 5 times, then added with 50 μL/well of TMB chromogenic substrate (KPL, Cat #: 52-00-03), incubated at room temperature for 10-15 min, added with 50 μL/well of 1 M H₂SO₄ to stop the reaction, and read by a […] Go microplate reader (ThermoFisher, Cat #: 51119200) for the absorbance value at 450 nm, and then a clone with high binding activity was selected or a EC₅₀ value was calculated according to the OD value.

human Sirpα-V1-his [2] = biological target: T1, human Sirpα-V1-his (human, UniProt P78324 31-373); assay: ELISA EC50 against Ref2
T1 construct: range 31-373; Bought (Sino Biological 11612-H08H) or expressed in-house; also called hSirpα-V1; hSirpα-V1-his
Experimental: as §1

human Sirpα-V1-his [3] = biological target: T1, human Sirpα-V1-his; assay: blocking ELISA, competitor CD47-hFc
Experimental: (§2) The recombinant proteins such as human Sirpα-V1-hFc/Sirpα-V1-his were diluted to concentrations of 5 μg/mL or 2 μg/mL respectively with a PBS buffer at pH 7.4, and then added into a 96-well ELISA plate (Corning, CLS3590-100EA) at a volume of 50 μL/well, and placed in an incubator at 37° C. for 2 hours. After the liquid was discarded, the wells were added with a blocking solution of 5% skimmed milk (skimmed milk powder available from Bright Dairy) diluted with PBS at 230 μL/well, and incubated in an incubator at 37° C. for 3 hours, or placed overnight at 4° C. (for 16-18 hours) for blocking. […] The plate was washed for 5 times, added with 50 μL/well of streptavidin-HRP (GenScript, M00091) or anti-his-HRP secondary antibody (GenScript, A00612) diluted at 1:1000, incubated at 37° C. for 1 hour, and then washed with PBST for 5 times. Each well was added with 50 μL of TMB (Surmodic, Cat #: TTMB-1000-01) for color development, and added with 50 μL/well of 1 M H₂SO₄ to stop the reaction. The readings on a microplate reader (MultiskanGO Thermo, Model 51119200) were subjected to data analysis by GraphPad prism 5.

human Sirpα-V1-hFc [4] = biological target: T2, human Sirpα-V1-hFc (human, UniProt P78324 31-373); assay: blocking ELISA, competitor CD47-his
T2 construct: range 31-373; also called hSirpα (dimer); hSirpα-V1-hFc (dimer); not shown: human IgG1 Fc region at the C-terminus
Experimental: as §2

human Sirpα-V1-hFc [5] = biological target: T2, human Sirpα-V1-hFc; assay: blocking ELISA, competitor CD47-his; remark: listed apart in the source
Experimental: as §2

human Sirpα-V2-his [6] = biological target: human Sirpα-V2-his (human); assay: blocking ELISA, competitor CD47-hFc
Experimental: Specifically, the recombinant protein of human Sirpα-V2-his was diluted to a concentration of 2 μg/mL with a PBS buffer at pH7.4, then added into a 96-well ELISA plate (Corning, CLS3590-100EA) at a volume of 50 μL/well, and placed in an incubator at 37° C. for 2 hours. After the liquid was discarded, the wells were added with a blocking solution of 5% skimmed milk (skimmed milk powder available from Bright Dairy) diluted with PBS at 230 μL/well, and incubated in an incubator at 37° C. for 3 hours, or placed overnight at 4° C. (for 16-18 hours) for blocking. […] The plate was washed for 5 times, added with 50 μL/well of a streptavidin-HRP secondary antibody (GenScript, M00091) diluted at 1:1000, incubated at 37° C. for 1 hour, and then washed with PBST for 5 times. Each well was added with 50 μL TMB (Surmodic, Cat #TTMB-1000-01) for color development, and added with 50 μL/well of 1 M H₂SO₄ to stop the reaction. The readings on a microplate reader (MultiskanGO Thermo, Model: 51119200) were subjected to data analysis by GraphPad prism 5.

human Sirpα-V1-his [7] = biological target: T1, human Sirpα-V1-his; assay: blocking ELISA, competitor CD47-hFc; remark: listed apart in the source
Experimental: The antigens PD-1 and Sirpα expressed according to the method of Example 1 were diluted with a PBS buffer at pH7.4 to a concentration of 2 μg/mL, added into a 96-well ELISA plate (Corning, CLS3590-100EA) at a volume of 50 μL/well, and incubated at 37° C. for 2 hours. After the liquid was discarded, the wells were added with a blocking solution of 5% skimmed milk (Sangon Biotech (Shanghai) Co., Ltd., A600669-0250) formulated with PBS at 200 μL/well, and incubated at 37° C. for 3 hours for blocking. […] The plate was washed with PBST for 5 times, added with 50 μL/well of HRP-labeled secondary antibody (GenScript Biotechnology Co., Ltd., M00091) diluted at 1:1000, and incubated at 37° C. for 1 hour. The plated was washed with PBST for 5 times, then added with 50 μl/well of TMB chromogenic substrate (KPL, 52-00-03), incubated at room temperature for 5-10 min, added with 50 μl/well of 1 M H₂SO₄ to stop the reaction, and read by a […] Go microplate reader (ThermoFisher, 51119200) for the absorbance value at 450 nm, and then IC₅₀ was calculated according to the OD value.

human Sirpα-V2-his (human), sequence (chain, as listed by the source): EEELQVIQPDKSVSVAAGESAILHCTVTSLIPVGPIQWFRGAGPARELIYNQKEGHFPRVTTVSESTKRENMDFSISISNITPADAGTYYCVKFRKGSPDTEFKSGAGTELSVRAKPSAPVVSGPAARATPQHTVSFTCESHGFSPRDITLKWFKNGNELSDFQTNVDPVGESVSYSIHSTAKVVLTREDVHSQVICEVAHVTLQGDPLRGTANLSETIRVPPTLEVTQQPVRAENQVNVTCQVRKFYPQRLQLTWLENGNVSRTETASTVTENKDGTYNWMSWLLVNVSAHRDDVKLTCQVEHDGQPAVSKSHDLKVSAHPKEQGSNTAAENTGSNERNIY

B1: humanized antibody mab14-h16 (antibody, human IgG4 S228P, kappa, V domains shown)
VH: QVQLVQSGAEVKKPGASVKVSCKASGYNFNIYWINWVRQAPGQGLEWIGNIYPSSISTNYNEKFKTRATLTVDKSTSTVYMELSSLRSEDTAVYYCARSEGTYYGGRYEGDWFGYWGQGTLVTVSS
VL: DIQMTQSPSSLSASVGDRVTITCRASQDIRNYLNWYQQKPGKAPKLLIYFTSTLHSGVPSRFSGSGSGTDFTLTISSLQPEDFATYYCQQGNTLPWTFGGGTKVEIKR
notes: hIgG4, κ
fold stronger binding than Ref2 (human Sirpα-V2-his [1]): 2.9 fold | fold stronger binding than Ref2 (human Sirpα-V1-his [2]): 1.4 fold | IC50 (human Sirpα-V1-his [3]): 10.1 nM | IC50 (human Sirpα-V1-hFc [4]): 5.92 nM | IC50 (human Sirpα-V1-hFc [5]): 4.81 nM | IC50 (human Sirpα-V2-his [6]): 6.29 nM | IC50 (human Sirpα-V1-his [7]): 6.14 nM

From patent US20230106247A1 (L AND L BIO CO LTD NINGBO CHINA, published 2023)
